Laboratory results as given in patent US20240352136A1 (Hoffmann-La Roche, published 2024).

Target: T1, human CD25 (alpha subunit of the interleukin-2 receptor, IL2RA) (human, UniProt P01589 22-272)
T1 sequence: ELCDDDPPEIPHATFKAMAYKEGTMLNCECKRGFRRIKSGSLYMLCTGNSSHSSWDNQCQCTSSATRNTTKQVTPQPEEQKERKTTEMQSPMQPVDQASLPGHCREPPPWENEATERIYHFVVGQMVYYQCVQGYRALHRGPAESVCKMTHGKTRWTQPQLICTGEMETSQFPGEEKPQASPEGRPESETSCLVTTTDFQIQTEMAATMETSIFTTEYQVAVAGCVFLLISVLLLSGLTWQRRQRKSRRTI
Test: cell-based or functional assay

B1: CD25 Mab (RG6292) (antibody, human IgG1, kappa, V domains shown)
VH: QVQLVQSGAEVKKPGSSVKVSCKASGGTFSSLAISWVRQAPGQGLEWMGGIIPIFGTANYAQKFQGRVTITADESTSTAYMELSSLRSEDTAVYYCARGGSVSGTLVDFDIWGQGTMVTVSS
VL: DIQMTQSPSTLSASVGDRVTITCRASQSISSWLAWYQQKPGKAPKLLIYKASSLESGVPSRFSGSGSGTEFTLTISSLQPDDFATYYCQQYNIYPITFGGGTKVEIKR
modifications: afucosylated Fc glycan (produced using the GlymaxX technology)
- ADCC EC50, AML-22 target cells with activated NK cells, flow cytometry readout, 17 h: ~0.03 µg/mL
- ADCC EC50, EOL-1 target cells with activated NK cells, flow cytometry readout, 17 h: ~0.03 µg/mL
- ADCC EC50, EOL-1 target cells, CytoTox-Glo luminescence readout: 0.035 µg/mL
- ADCC EC50, EOL-1 target cells, flow cytometry readout: 0.03 µg/mL
